Patent publication US8372617B2, “β-galactoside-α2,6-sialyltransferase, a gene encoding thereof, and a method for enhancing enzyme activity” (Japan Tobacco Inc., priority 2007, dated 2013)
Where “and” joins values, the source holds several entries; their conditions need not be identical. Equal entries are not always repeated.

Legend:
Type in all cases: biochemical, Photobacterium leiognathi
[1] = test system: recombinant β-galactoside-α2,6-sialyltransferase N1C0; assay: Transfer of sialic acid to glycoproteins; conditions: enzyme +; 30° C. for 0.5 hours
Protocol: As a glycosyl acceptor substrate, asialofetuin and asialomucin were each used. Asialofetuin or asialomucin (2 mg) was dissolved in 1 ml of 20 mM Bis-Tris buffer (pH 7.0) and used as a glycosyl acceptor substrate solution. As a glycosyl donor substrate, CMP-NeuAc was used. The glycosyl acceptor substrate solution (40 μl), the glycosyl donor substrate (5 μl) and the enzyme solution (5 μl) were mixed and incubated at 30° C. for 0.5 hours to cause sialic acid transfer reaction. After completion of the reaction, the reaction solution was gel-filtered by being applied to a Sephadex G-50 Superfine (0.8×18.0 cm) equilibrated with 0.1 M sodium chloride. A glycoprotein-containing eluate fraction (2-4 ml fraction) from gel filtration was collected and measured for its radioactivity using a liquid scintillation counter to quantify sialic acid transferred to the glycosyl acceptor substrate.

[2] = test system: β-galactoside-α2,6-sialyltransferase from the strain JT-SHIZ-145; assay: Sialyltransferase activity measurement of crude enzyme solution from E. coli transformed with SHIZ145-N1C0/pTrc99A (14C CMP-NeuAc donor, lactose acceptor); conditions: insert +, 120 mM lactose, 0.5 M NaCl, 30° C. for 30 minutes
Protocol: Among the two expression vectors obtained above, SHIZ145-N1C0/pTrc99A was used to perform an induction experiment of protein expression. A single colony of E. coli TB1 having the expression vector pTrc99A carrying the SHIZ145-N1C0 clone (SEQ ID NO: 3) was inoculated into LB medium (6 ml) containing an antibiotic, ampicillin (final concentration […]), and pre-cultured at 30° C. to about A600=0.5, followed by addition of IPTG (isopropyl-β-D(−)-thiogalactopyranoside, Wako Pure Chemical Industries, Ltd., Japan) at a final concentration of 1 mM to initiate expression induction. After culturing overnight with shaking at 30° C., the cells in 2 ml culture solution were collected by centrifugation. These cells were suspended in 400 μl of 20 mM Bis-Tris buffer (pH 6.0) containing 0.336% Triton X-100, and ultrasonically homogenized under ice cooling. The resulting homogenate was defined as a crude enzyme solution and provided for sialyltransferase activity measurement. Measurement was accomplished as described in J. Biochem., 120, 104-110 (1996) (hereby incorporated by reference in its entirety). […] Radioactivity was measured for the reaction product, i.e., sialyllactose contained in the eluate from the column to calculate the enzyme activity.

[3] = test system: recombinant β-galactoside-α2,6-sialyltransferase N1C0; assay: Optimum temperature for enzyme activity; conditions: phosphate buffer (pH 8.0), 10° C. up to 50° C.
Protocol: The enzyme activity was measured at an interval of 5° C. starting from 10° C. up to 50° C. using phosphate buffer (pH 8.0).
As a result, as shown in FIG. 2-2, the enzyme activity was maximum at 30° C. It should be noted that enzyme activity at each temperature was evaluated as relative activity, assuming that the enzyme activity at 30° C. was set to 100.

[4] = test system: β-galactoside-α2,6-sialyltransferase; assay: Binding mode of sialic acid: reaction with PA-lactose and CMP-NeuAc, HPLC analysis; conditions: pyridylaminated lactose as glycosyl acceptor
Protocol: To determine the binding mode of sialic acid, a reaction using PA-lactose as a substrate was then performed. The enzymatic reaction was accomplished by using the resulting crude enzyme solution and a pyridylaminated sugar chain as a glycosyl acceptor substrate. The pyridylaminated sugar chain used for analysis was pyridylaminated lactose (Galβ1-4Glc-PA, Takara Bio Inc., Japan). To 5 μl of the crude enzyme solution, 1.5 μl of 5 mM CMP-NeuAc and 1.5 μl of 10 pmol/μl glycosyl acceptor substrate were added and reacted at 25° C. for 18 hours. After completion of the reaction, the reaction solution was treated at 100° C. for 2 minutes to inactivate the enzyme, followed by HPLC to analyze the reaction product. The HPLC system used was Shimadzu LC10A (Shimadzu Corporation, Japan) and the analytical column used was Takara PALPAK Type R (Takara Bio Inc., Japan). […] The analysis was performed under the following conditions: flow rate: 1 ml/min, column temperature: 40° C., detection: fluorescence (Ex: 320 nm, Em: 400 nm).
Further analysis was performed to examine whether sialyltransferase expressed by E. coli cells transformed in (5) above with SHIZ145-N1C0/pTrc99A had β-galactoside-α2,6-sialyltransferase activity. […] As a result, PA-6′-sialyllactose (Neu5Acα2-6Galβ1-4Glc-PA) was detected, as in the case of Example 1.

[5] = test system: recombinant β-galactoside-α2,6-sialyltransferase N1C0; assay: Optimum pH for enzyme activity; conditions: phosphate buffer, 30° C.
Protocol: Acetate buffer (pH 4-5), cacodylate buffer (pH 5-6), Bis-Tris buffer (pH 6-7), phosphate buffer (pH 6-9.5), Tris-HCl buffer (pH 7-9.5), TAPS buffer (pH 8-9), CHES buffer (pH 9-10) and CAPS buffer (pH 10-11) were prepared and used for enzyme activity measurement at 30° C. at various pH values.
It should be noted that enzyme activity at each pH was evaluated as relative activity, assuming that the enzyme activity at pH 8.0 in phosphate buffer was set to 1.

Asialofetuin: glycoprotein used as glycosyl acceptor substrate
NeuAc transferred (cpm) [1]: 2140 cpm and 2038 cpm

B1: SHIZ145-N1C0: β-galactoside-α2,6-sialyltransferase from strain JT-SHIZ-145 lacking the amino acids of the signal peptide region, expressed in E. coli (protein)
chain: MCNDNQNTVDVVVSTVNDNVIENNTYQVKPIDTPTTFDSYSWIQTCGTPILKDDEKYSLSFDFVAPELDQDEKFCFEFTGDVDGKRYVTQTNLTVVAPTLEVYVDHASLPSLQQLMKIIQQKNEYSQNERFISWGRIRLTEDNAEKLNAHIYPLAGNNTSQELVDAVIDYADSKNRLNLELNTNTGHSFRNIAPILRATSSKNNILISNINLYDDGSAEYVSLYNWKDTDNKSQKLSDSFLVLKDYLNGISSEKPNGIYSIYNWHQLYHSSYYFLRKDYLTVETKLHDLREYLGGSLKQMSWDTFSQLSKGDKELFLNIVGFDQEKLQQEYQQSELPNFVFTGTTTWAGGETKEYYAQQQVNVVNNAINETSPYYLGREHDLFFKGHPRGGIINDIILGSFNNMIDIPAKVSFEVLMMTGMLPDTVGGIASSLYFSIPAEKVSFIVFTSSDTITDREDALKSPLVQVMMTLGIVKEKDVLFWC
NeuAc transferred (cpm) [2]: 8326 cpm | temperature at which the enzyme activity was maximum [3]: 30 °C | PA-6′-sialyllactose (Neu5Acα2-6Galβ1-4Glc-PA) product [4]: detected | pH at which the enzyme activity reached maximum [5]: 8.0
